Measured values: US20130058921A1 (published 2013)

Target: CS1 (human, UniProt Q9NQ25 23-335)
Test: cell-based or functional assay

B1: elotuzumab (antibody, V domains shown)
VH: EVQLVESGGGLVQPGGSLRLSCAASGFDFSRYWMSWVRQAPGKGLEWIGEINPDSSTINYAPSLKDKFIISRDNAKNSLYLQMNSLRAEDTAVYYCARPDGNYWYFDVWGQGTLVTVSS
VL: DIQMTQSPSSLSASVGDRVTITCKASQDVGIAVAWYQQKPGKVPKLLIYWASTRHTGVPDRFSGSGSGTDFTLTISSLQPEDVATYYCQQYSSYPYTFGQGTKVEIK
expanded autologous NK cell-mediated killing of multiple myeloma cells (51Cr release assay): ≥ 1.7 fold
